Laboratory results taken from the RNAGym collection of RNA variant scans (doi:10.1073/pnas.2313332121).
Variants at the floor of the assay were thinned out.

B1: TPR 5TU (parent)
chain: GGAUCUUCUCGAUCUAACAAAAAAGACAAAUCUGCCACAAAGCUUGAGAGCAUCUUCGGAUGCAGAGGCGGCAGCCUUCGGUGGCGCGAUAGCGCCAACGUUCUCAACUAUGACACGCAAAACGCGUGCUCCGUUGAAUGGAGUUUAUCAUG

Variants of: B1
Assay: polymerase ribozyme fitness, log enrichment relative to wild type (log ratio); higher = more active; in vitro selection for triplet polymerase activity
Method in brief: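 For each subunit of a heterodimeric triplet polymerase ribozyme, a mutant library was built by PCR and transcribed, then taken through a single in vitro selection round in triplicate. Selection involved annealing to a biotinylated primer, the partner subunit and triplets, incubation frozen at −7 °C, gel excision of extended constructs, capture on streptavidin beads and RT-PCR. Genotypes were retained after Illumina sequencing of inputs and outputs only with ≥10 input reads and ≥1 read in each output. Fitness is defined as the logarithm of a genotype's enrichment relative to wild-type enrichment, using inverse-variance-weighted averages across replicates, with the logarithm taken to base 2.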

| Variant | polymerase ribozyme fitness (log ratio) |
| --- | --- |
| A26U A49G U101G A120G A147C | ≤ -4.2 |
| A26C A29U G126U A138C | ≤ -4.2 |
| C27G A37U U55A U56A G70A G84C C108U | ≤ -4.2 |
| C27U G58A G59C C99U U102G A120C C125U | ≤ -4.2 |
| C27U C118U | -1.44 |
| A26C U44G A91U U145C | ≤ -4.2 |
| G25U G58U A97C | -2.23 |
| A26C A137G U144A | -4.13 |
| A28C G84U G88C A91G G124U | ≤ -4.2 |
| A26U G92A | -3.86 |
| C27A C38U G81A G86U A110U | ≤ -4.2 |
| A28U U45A C57U A60G C75G G94A G126C | ≤ -4.2 |
| C27A C32U G46A G86U C105A | ≤ -4.2 |
| A26U A40G A41C A49G C51U A52C U90A G92A C95U A97C C118A A137G U151C | ≤ -4.2 |
| A28U C43A U109G G141C | ≤ -4.2 |
| C27U A49G | -2.49 |
| A26C G68C A122C U135C U139G U145G | ≤ -4.2 |
| A28C U33G U77C U90G C93A U148C G152A | ≤ -4.2 |
| G25U A52C C87A U90G A142G | ≤ -4.2 |
| A28G A39U U53A G71A C93A | ≤ -4.2 |
| C27A A49C U90G U145C | ≤ -4.2 |

| Variant | polymerase ribozyme fitness (log ratio) |
| --- | --- |
| A28U U33G C43G A47C U55G U56A G84A C87G A106G A107C G133U G140U | ≤ -4.2 |
| C27A G50A C54U C95A | ≤ -4.2 |
| C27A A28G C43A G58C C95U C105G | ≤ -4.2 |
| A26U A73U G74U C96A | ≤ -4.2 |
| A26U C118G | -2.12 |
| A26U U31C A39U U90C | ≤ -4.2 |
| A29C A37U C108U | -4.09 |
| A26U U56A U101G A115G | -3.42 |
| G25U U61G A66C C87U A137G | ≤ -4.2 |
| A28U G50C C54U C95A A107U G143U | ≤ -4.2 |
| C27G U45G | -3.87 |
| G25U G84A | -3.07 |
| A26U C36G U134A G143U U144C | ≤ -4.2 |
| A26G A37G A40G G58U G65U G74C G88C U101C U151A | ≤ -4.2 |
| A26G A40G U55A G92A C123G C125U G126A U127C | ≤ -4.2 |
| A28U U61A G74C | ≤ -4.2 |
| A26U U134A | -3.96 |
| C27U G65C A66C A73U C93A C108G C129G | -3.81 |
| A29C A47U C76G C79A A97U C99A C125G U134A U144G | ≤ -4.2 |
| C27A U101G | -3.63 |
| A28C U45A G88A C96A G100A G143A | ≤ -4.2 |

| Variant | polymerase ribozyme fitness (log ratio) |
| --- | --- |
| A28U G70U G83C C131U | ≤ -4.2 |
| A28C U134A | ≤ -4.2 |
| A26U A52C C96A | -3.2 |
| C27U C35U U53A U56G C57A C93A A113C A122G U146A C149G | ≤ -4.2 |
| C27U C57U G94A C95A G143A | ≤ -4.2 |
| C27U G83A C125U U130G U135G | ≤ -4.2 |
| C27G C105A C114A A119G | ≤ -4.2 |
| A28U A29U G74C C79G A89C C118A A120U A122G C125G | ≤ -4.2 |
| A26U A97U A119G | -2.34 |
| A26U A52U U135A | -2.83 |
| A28G G88U G92A A98G G133U U144A | ≤ -4.2 |
| C27G G59U A60C A91U C105U U145C | ≤ -4.2 |
| C27G G80A G81C | -4.11 |
| A28U C87G U127A G133C U139A | -4.15 |
| C27A C85A | ≤ -4.2 |
| A26G A41C G94A A115C | -3.45 |
| A28G G42C C43G U56C C85G G92A G124U A150U | ≤ -4.2 |
| A26G C27G A40G C57U C85U C118U | -3.9 |
| C27U G42A G67U C69A G117A A150C | ≤ -4.2 |
| C27A A119U G133C A137G G140U U144G | ≤ -4.2 |
| A26G A30C G59A G74A G84U | -3.99 |

| Variant | polymerase ribozyme fitness (log ratio) |
| --- | --- |
| C27U A37U C125U | -3.74 |
| G25U C35U G86C C103U G133U | ≤ -4.2 |
| A28C A49U U56A G65A G70C A91U G94C G117C U151A | ≤ -4.2 |
| A26G A66U C85A C95A G124C C131A | ≤ -4.2 |
| C27G A28U G50U C87G G140C | -3.94 |
| A28U U44A C87G A106C | ≤ -4.2 |
| A28U C87U A106U C108U A119C U148C | ≤ -4.2 |
| C27G G67C C85A | ≤ -4.2 |
| C27U C63U C76U G81C U101G U146G | -3.39 |
| C27G G141U | -4.04 |
| C27G U55A A73G U77A C87A A142U | ≤ -4.2 |
| C27U C87U A142U | -3.03 |
| C27U A49C G88A U111G | ≤ -4.2 |
| C27U U44G U56A G58C U61A G86U U135C | ≤ -4.2 |
| A28G C93U C118A | ≤ -4.2 |
| C27U C32A A39U C75U A91C A121C G126C | ≤ -4.2 |
| G25U C36U G67C C85G C87U A89U | ≤ -4.2 |
| A26U U151C | ≤ -4.2 |
| A28C U56A C72U C76G | ≤ -4.2 |
| A28C C57A A66U G71A C87A U102G A138C | ≤ -4.2 |
